Source: patent US20140056902A1 (Kyowa Kirin, published 2014)

B1: human mature dimer BMP10 recombinant protein (manufactured by R&D systems, Cat#2926-BP) (ligand)
chain: NAKGNYCKRTPLYIDFKEIGWDSWIIAPPGYEAYECRGVCNYPLAEHLTPTKHAIIQALVHLKNSQKASKACCVPTKLEPISILYLDKGVVTYKFKYEGMAVSECGCR

Columns and labels:
[1] = biological target: T1, full-length human ALK1 expressed on the reporter cell line ALK1/p(GCCG)12-Luc/HepG2(38.5) (human, UniProt P37023 22-503); assay: cell-based or functional assay
[2] = biological target: T1, full-length human ALK1 expressed on the …; assay: cell-based or functional assay; remark: listed apart in the source
[3] = biological target: T2, N-terminal His-tagged BMP10 expressed by the pLN1V5_human BMP10 vector (human, UniProt O95393 22-424); assay: antigen-immobilized ELISA, antigen coated at 3 ug/mL
T2 sequence: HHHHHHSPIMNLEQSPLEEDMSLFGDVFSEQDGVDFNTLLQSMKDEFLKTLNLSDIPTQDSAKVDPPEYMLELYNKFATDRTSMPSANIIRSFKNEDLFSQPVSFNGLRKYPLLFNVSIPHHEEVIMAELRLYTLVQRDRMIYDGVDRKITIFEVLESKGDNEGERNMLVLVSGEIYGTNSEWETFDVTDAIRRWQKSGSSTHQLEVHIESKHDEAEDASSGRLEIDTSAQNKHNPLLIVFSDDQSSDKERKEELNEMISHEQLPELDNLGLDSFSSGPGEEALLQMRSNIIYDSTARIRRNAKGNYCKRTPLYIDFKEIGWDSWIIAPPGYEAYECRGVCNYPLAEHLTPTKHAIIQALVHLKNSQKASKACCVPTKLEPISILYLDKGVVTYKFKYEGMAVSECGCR
Procedure: Antigen immobilized ELISA of the obtained antibodies was performed using the chimeric protein. 3 μg/mL of the recombinant human BMP9, BMP10, and BMP9/10 chimeric proteins of Example 20-2 in 50 mmol/L NaHCO₃ buffer were added to a 96-well plate for ELISA (F96 MAXISORP NUNC-IMMUNO PLATE, manufactured by Thermo Fisher Scientific, Cat#442404) at an amount of 50 μL/well, and left at 4° C. overnight for adsorption.
After removal of the reagent for immobilization, 200 μL/well of 1% BSA-PBS was added, and left at room temperature for 1 hour for blocking, and washing was carried out using PBST five times. […]
The plate was washed with PBST ten times, and 50 μL/well of the TMB chromogen reagent (TMB+Substrate-Chromogen, manufactured by Dako, Cat#S 1599) was added for chromogenic reaction. When the intensity of chromogenic reaction became strong enough, 50 μL/well of a 1 N sulfuric acid solution (manufactured by Wako, Cat#192-04755) was added, and absorbance at 450 nm and 570 nm was determined using a Multiskan Spectrum (manufactured by Thermo Labsystems).

[4] = biological target: B1; assay: ELISA, immobilized antigen (100 ng/mL coat), biotin-labeled antibody at 100 ng/mL, absorbance 450-570 nm
Procedure: To examine specificity of the obtained antibodies to human BMP9, their binding ability to human BMP9 and human BMP10 having the highest homology to human BMP9 was tested by comparison. First, 100 ng/mL of human mature dimer BMP9 recombinant protein (manufactured by R&D systems, Cat#3209-BP), or human mature dimer BMP10 recombinant protein (manufactured by R&D systems, Cat#2926-BP) prepared in 50 mmol/L NaHCO₃ buffer (manufactured by Wako, Cat#191-01305) was added to a 96-well plate for ELISA (F96 MAXISORP NUNC-IMMUNO PLATE, manufactured by Thermo Fisher Scientific, Cat#442404) at an amount of 50 μL/well, and left at 4° C. overnight for adsorption.
Subsequently, 6D10-1-1 antibody, 10D5-2-3 antibody, 3B7-3-3 antibody, R&D antibody, or anti-BMP10 antibody (manufactured by R&D, Cat#MAB2926) that was labeled with biotin using a Biotin Labeling Kit-NH2 (manufactured by COSMO BIO, Cat#LK03) was prepared at a concentration of 100 ng/mL using 10% Super Block in TBST which was prepared by mixing SuperBlock and TBST at a ratio of 1:9. 50 μL/well thereof was aliquoted as a primary antibody, and left at room temperature for 1 hour.
(§1) The plate was washed with TBST five times, and 50 μL/well of the TMB substrate reagent (TMB+ Substrate-Chromogen, manufactured by Dako, Cat#S1599) was added for color-development. When proper color was developed, 50 μL/well of the 1 N sulfuric acid solution (manufactured by Wako, Cat#192-04755) was added, and absorbance (450 nm-570 nm) at a sample wavelength of 450 nm and at a reference wavelength of 570 nm was determined using a plate reader (manufactured by Spectra Max, Molecular Devices).

[5] = biological target: T3, human BMP9 recombinant protein prepared according to Example 12 of WO 2010/126169 (N-terminal His-tagged … (human, UniProt Q9UK05 320-429; Q9UK05 23-319); assay: SPR (BIAcore 2000), antibody captured on anti-mouse IgG, human BMP9 recombinant protein as analyte, single cycle kinetics
T3 construct: not shown: N-terminal His tag
T3 sequence 1: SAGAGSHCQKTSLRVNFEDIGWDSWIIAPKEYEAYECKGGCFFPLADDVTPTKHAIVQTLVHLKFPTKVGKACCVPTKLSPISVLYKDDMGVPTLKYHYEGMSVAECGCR
T3 sequence 2: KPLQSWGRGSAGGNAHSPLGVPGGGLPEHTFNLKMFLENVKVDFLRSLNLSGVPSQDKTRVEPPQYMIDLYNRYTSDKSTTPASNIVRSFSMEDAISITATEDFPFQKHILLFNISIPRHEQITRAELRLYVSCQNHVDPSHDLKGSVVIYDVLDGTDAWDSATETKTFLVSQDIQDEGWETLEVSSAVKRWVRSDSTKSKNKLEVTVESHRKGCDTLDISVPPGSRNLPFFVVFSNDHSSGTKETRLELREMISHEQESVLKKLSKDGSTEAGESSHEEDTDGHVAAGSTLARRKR
Excerpt: The binding activity (affinity) of the obtained antibodies to human BMP9 recombinant protein was examined using BIAcore 2000 (manufactured by GE Healthcare). After anti-mouse IgG antibody was immobilized onto a CM5 sensor chip using a Mouse Antibody Capture Kit (manufactured by GE Healthcare), anti-human BMP9 antibody was coupled to an RU value of 700-1100.
Thereafter, 0.152 nmol/L, 0.457 nmol/L, 1.37 nmol/L, 4.1 nmol/L, 12.3 nmol/L, 36.89 nmol/L, 110.67 nmol/L, and […] of the human BMP9 recombinant protein prepared in Example 7-1 were prepared by using an HBS-EP solution (manufactured by GE Healthcare) and added as analytes, and binding affinity was measured.
Based on the obtained values, the dissociation constant (Kd value) was calculated by single cycle kinetics (BIAevaluation Software ver. 3, manufactured by GE Healthcare).

[6] = biological target: T4, human mature dimer BMP9 recombinant protein (manufactured by R&D systems, Cat#3209-BP) (human, UniProt Q9UK05 320-429); assay: ELISA, immobilized human BMP9 (100 ng/mL coat), biotin-labeled antibody titrated, absorbance 450-570 nm; unit ng/mL from the legend
T4 construct: Bought protein; also called human BMP9; human BMP9 recombinant protein (manufactured by R&D systems)
T4 sequence: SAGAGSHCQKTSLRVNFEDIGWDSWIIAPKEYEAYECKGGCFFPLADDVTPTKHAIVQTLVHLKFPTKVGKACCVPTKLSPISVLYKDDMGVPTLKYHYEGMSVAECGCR
Procedure: First, 100 ng/mL of human mature dimer BMP9 recombinant protein (manufactured by R&D systems, Cat#3209-BP) prepared in 50 mmol/L NaHCO₃ buffer was added to a 96-well plate for ELISA (F96 MAXISORP NUNC-IMMUNO PLATE, manufactured by Thermo Fisher Scientific, Cat#439454) at an amount of 50 μL/well, and left at 4° C. overnight for adsorption.
After removal of the reagent for immobilization, 200 μL/well of SuperBlock (manufactured by Thermo […], Cat#37535) was added, and left at room temperature for 1 hour for blocking, and washing was carried out using TBST three times. Subsequently, the biotin-labeled 6D10-1-1 antibody, 10D5-2-3 antibody, 3B7-3-3 antibody or R&D antibody was prepared at a concentration of 1, 5, 20, 100, or 300 ng/mL using 10% Super Block in TBST. Each 50 μL/well thereof was aliquoted, and left at room temperature for 1 hour.
as §1

[7] = biological target: T4, human mature dimer BMP9 recombinant …; assay: SPR (Biacore T100), antibody captured on anti-human IgG, human BMP9 as analyte
Procedure: For the purpose of comparing binding activity to human BMP9 between c10D5-2-3 antibody and 22 types of 10D5-2-3 antibody-humanized antibodies obtained in Example 22-7, binding activity to human BMP9 recombinant protein (manufactured by R&D systems) was measured by surface plasmon resonance (SPR) using a BiacoreT100 instrument (manufactured by GE Healthcare bioscience).
Anti-human IgG antibody was immobilized onto a CM5 sensor chip (manufactured by GE Healthcare bioscience) using a Human Antibody Capture Kit (manufactured by GE Healthcare bioscience) in accordance with the accompanying protocol. 0.4 μg/mL of c10D5-2-3 antibody or each humanized antibody was applied to the flow cell onto which anti-human IgG antibody was immobilized, at a flow rate of 10 μL/min for 2 minutes.
Subsequently, human BMP9 recombinant protein (manufactured by R&D systems, Cat#3209-BP) was subjected to 2-fold serial dilution starting from […] to give 5 concentrations, and applied at a flow rate of 10 μL/min, and association was monitored over 3 minutes and dissociation over 3 minutes at a flow of 10 μL/min. The sensorgram thus obtained was analyzed by BiaEvaluation Software (manufactured by GE Healthcare bioscience) to calculate the rate constant of each antibody.

T1 sequence (P37023 22-503 limits assumed): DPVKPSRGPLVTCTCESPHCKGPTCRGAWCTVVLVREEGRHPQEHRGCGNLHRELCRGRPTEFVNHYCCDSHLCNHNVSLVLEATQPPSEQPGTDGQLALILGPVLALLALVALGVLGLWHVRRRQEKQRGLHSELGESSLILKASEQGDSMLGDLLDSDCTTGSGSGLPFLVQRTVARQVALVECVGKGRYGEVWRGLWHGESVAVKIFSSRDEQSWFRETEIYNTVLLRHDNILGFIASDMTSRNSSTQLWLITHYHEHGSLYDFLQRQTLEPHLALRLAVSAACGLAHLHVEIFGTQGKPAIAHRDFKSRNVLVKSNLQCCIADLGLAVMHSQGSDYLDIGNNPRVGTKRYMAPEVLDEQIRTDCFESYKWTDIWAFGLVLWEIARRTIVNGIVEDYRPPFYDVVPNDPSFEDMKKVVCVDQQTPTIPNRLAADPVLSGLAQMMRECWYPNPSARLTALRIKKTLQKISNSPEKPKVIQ

Q: How did the “EC50 (read off the curve); luciferase activity (RLU) of human ALK1 reporter cells, with 3 ug/mL 6D10-1-1 antibody alone (filled square)” value [1] turn out when B1 was run?
A: The value was ~0.4 ng/mL.

Q: What about the “EC50 (read off the curve); luciferase activity (RLU) of human ALK1 reporter cells, with 3 ug/mL 10D5-2-3 antibody alone (filled square)” value [2] of the same binder?
A: The value was ~0.3 ng/mL.

Q: And the “EC50 (read off the curve); luciferase activity (RLU) of human ALK1 reporter cells, with the complex of 3 ug/mL 10D5-2-3 antibody and 2 ng/mL human BMP9 (open triangle)” value [2]?
A: Its value is ~0.3 ng/mL.

Q: What about the “EC50 (read off the curve); luciferase activity (RLU) of human ALK1 reporter cells, with the complex of 3 ug/mL 10D5-2-3 antibody and 10 ng/mL human BMP9 (open circle)” value [2] of the same binder?
A: The value was ~0.2 ng/mL.

B2: 6D10-1-1 antibody (antibody, mouse IgG1, V domains shown)
VH: QVQLQQSGAELVRPGTSVKVSCKASGYAFTNYLMEWIKQRPGQGLEWIGVIHPGIGVTNYNEKFKGKATLTADISSSTAYMQLSSLTSEDSAVYFCARRANWDLYYFDYWGQGTTLTVSS
VL: DIQMTQITSSLSASLGDRVTISCSASQDISNYLNWYQQKPDGTVKLLIYYTSSLHSEVPSRFSGSGSGTDYSLTISNLEPEDIATYYCQQYINLPLTFGAGTKLELKR
notes: Mouse monoclonal from a BMP9 KO mouse hybridoma; also called 610D-1-1 antibody
Q: Which results are given for B2?
A: binding result [3]: no binding; binding result [4]: no binding (tested: 100 ng/mL); Kd [5]: 0.0297 nM; Relative binding affinity (to R&D antibody) [5]: 20.7 fold; EC50 (read off the curve) [6]: ~8 ng/mL

B3: 3B7-3-3 antibody (antibody, mouse IgG1, V domains shown)
VH: EVQLQQSRPELVKPGASVKISCKASDYSFTDYYMNWVKQSPDKSLEWIGEISPSSGGTTYNQKFKAKATLTVDKSSSTAYMQLKSLTSEDSAVYYCATRGAFYFDYWGQGTALTVSS
VL: QIVLTQSPALMSAFPGEKVTMTCSASSSVSYMYWYQQKPRSSPKPWIYLTSNLASGVPTRFSGSGSGTSYSLTISSMEAEDAATYFCQQWSSNPRTFGGGTKLEIKR
notes: Mouse monoclonal from a BMP9 KO mouse hybridoma; mouse IgG1 heavy chain, kappa light chain
Q: Does B3 bind [4]?
A: Result: no binding (tested: 100 ng/mL)

B4: 10D5-2-3 antibody-humanized antibody HV0LV3 (antibody, V domains shown)
VH: EVQLVESGGGLVQPGGSLRLSCAASGFTFSNYWMNWVRQAPGKGLEWVGHIRLKSDNYATHYAESVRGRFTISRDDSKNSLYLQMNSLKTEDTAVYYCARGSNYVFAFWGQGTLVTVSS
VL: DIVMTQSPDSLAVSLGERATINCRASESVDNYGISFMNWFQQKPGQPPKLLIYAASNQGSGVPDRFSGSGSGTDFTLTISPLQAEDVAVYFCQQSKEVPWTFGQGTKLEIK
notes: Expressed from pKANTEX93
Q: Does B4 bind [7]?
A: Result: no binding (tested: human BMP9 up to 1 nM)

B5: 10D5-2-3 antibody-humanized antibody HV0LV4 (antibody, V domains shown)
VH: EVQLVESGGGLVQPGGSLRLSCAASGFTFSNYWMNWVRQAPGKGLEWVGHIRLKSDNYATHYAESVRGRFTISRDDSKNSLYLQMNSLKTEDTAVYYCARGSNYVFAFWGQGTLVTVSS
VL: DIVLTQSPDSLAVSLGERATINCRASESVDNYGISFMNWYQQKPGQPPKLLIYAASNQGSGVPDRFSGSGSGTDFTLTISPMQAEDVAMYYCQQSKEVPWTFGQGTKLEIK
notes: Expressed from pKANTEX93
Q: Does B5 bind [7]?
A: Result: no binding (tested: human BMP9 up to 1 nM)
